Reference: patent publication US20230083243A1 (VEGA THERAPEUTICS, published 2023)

B1: Antibody 13 (antibody, V domains shown)
VH: QVQLVQSGAEVKKPGSSVKVSCKVSGGTFSSYSISWVRQAPGQGLEWMGGIIPIFGTTNYAQKFQGRVTITADESTSTAYMDLSSLKSEDTAMYYCEGGRVGADFDYWGQGTLVTVSS
VL: SSDLTQGPAVSVALGQTVRITCQGDSLRNYYASWYQQKPGQAPVPVIYGKNDRPSGIPDRFSGSISGNTASLTITGAQAEDEAHYYCNSRDSSGNHVVFGGGTKLTVL
notes: Human variable region with rat Fc
B2: Antibody 15 (antibody, V domains shown)
VH: EVQLVESGGGLVQPGRSLRLSCAASGFTFDDYAMHWVRQAPGKGLEWVSGITWNSGNIGYADSVKGRFTISRDNAKNSLYLHMNSLRIEDTAFYYCAKGRAVSDTFDIWGQGTMVTVSS
VL: SYELNQPPSVSVSPGQTASITCSGDKLGDKYASWYQQKPGQSPVVAIYQNSKRPSGIPERFSASNSGNTATLTISGTQALDEADYYCQAWDSSTWVFGGGTKLTVL
notes: as for B1
B3: Antibody 16 (antibody, V domains shown)
VH: QVQLVESGGGVVQPGRSLRLSCAASGFTFSTYGFHWVRQPPGKGLEWVAVIYYDGINKYYADSVKGRFTISRDNSKNTLFLQMNSLRAEDTAVYYCAESDLDYWGQGTLVTVSS
VL: EIVLTQSPATLSLSPGERATLSCRASQSVSIYLAWYQQKPGQAPRLLIYDASNRATGIPARFSGSGSGTDFTLTISSLEPEDFAVYYCQQRSNWPLTFGPGTKVDIK
notes: as for B1
B4: Antibody 18 (antibody, V domains shown)
VH: QVQLQESGPGLVKPSETLSLTCTVSGGSISNYYWNWIRQPPGKGLEWIGYIYYIGITDYNPSLKSRVTISVDTSKNQFSLKVTSVTAADTAVYYCAALSGDHAFDIWGQGTLVTVSS
VL: not shown
notes: as for B1
B5: Antibody 19 (antibody, V domains shown)
VH: QLQLQESGPGLVKPSETLSLTCTVSGGSISSSSYYWGWIRQPPGKGLEWIGNIYYSGNTYYNPSLKSRVTISVDTSKNQFSLKLSSMTAADTAVYYCARCSGYGYSSGRSYFDYWGQETLVTVSS
VL: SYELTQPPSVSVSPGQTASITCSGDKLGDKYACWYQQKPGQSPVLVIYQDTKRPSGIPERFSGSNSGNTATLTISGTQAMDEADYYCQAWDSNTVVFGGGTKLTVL
B6: Antibody 20 (antibody, V domains shown)
VH: QVQLQESGPGLVKPSETLSLTCAVSGYSISSGYYWGWIRQPPGKGLDWIGSIYYSGSTYYNPSLKSRVTISVDTSKNQISLKLSSVTAADTAVYYCATTYSDIVTGYYNDAFDIWGQGTMVTVSS
VL: EIVMTQSPATLSVSPGERATLSCRASQRINSNLAWYQQKPGQAPRLLIYGASTRATGIPARFSGSGSGTEFTLTISSLQSEDFAAYYCQQYDNWPLTFGGGTKVEIK
notes: as for B1
B7: Antibody 21 (antibody, V domains shown)
VH: QVQLVQSGAEVKKPGSSVKVSCKASGDTFSNHAINWVRQAPGQGLEWMGGYIPIFGTTNSAQKFRGRVTITADKSTNTAYMALSSLRSEDTAVYYCARGGLAGSHYKNYYYDGMDVWGQGTTVTVSS
VL: not shown
notes: as for B1
B8: Antibody 23 (antibody, V domains shown)
VH: QVQLVQSGAEVKKPGASVKVSCKSSGHTFTGYYMHWVRQAPGQGLEWMGWINPNSGDTNYAQKFQGRVTMTRDTSISTAYMEMSRLRSDDTAVYYCARDSQILWFGELGYWGQGTLVTVSS
VL: QAVVTQESALTTSPGETVTLTCRSSTGAVTASNYANWVQEKPDHLFTGLIGSTNNRAPGVPARFSGSLIGDKAALTITGAQTEDEAIYFCALWYSDHFVFGGGTKLTVL
notes: as for B1
B9: Antibody 24 (antibody, V domains shown)
VH: QVQLQESGPGLVKPSETLSLTCGVSGGSISSTNWWSWVRQPPGKGLEWIGEIYQTGSTDYDPSLKSRVTISIDKSKNQFSLKLYSVTAADTAVYYCARRFGELDYWGQGTLVTVSS
VL: EIVMTQSPATLSVSPGERATLSCRASQSVTSNLAWYQQKPGQAPRLLIYDASTRATGIPARFSGSGSGTEFTLTISSLQSEDFAIYYCQQYNNWPTFGQGTRLEIK
notes: as for B1
B10: Antibody 31 (antibody, V domains shown)
VH: QVQLQESGPGLVKPSETLSLTCTVSGGSISGNYWSWIRQPPGKGLEWIGYIYYSGSTNYNPSLKSRVTISVDTSKNQFSLKLSSVTAADTAVYYCARDLDYFTWGAYSDWYFDLWGRGTLVTVSS
VL: DIQMTQSPSSLSASVGDRVTITCRASQSISTFLNWYQQKPGKAPKLLIYATSSLRSGVPSRFSGSGSGTDFTLTISSLQPEDFAIYYCQQSYSTPRTFGQGTQVEIK
notes: as for B1
B11: Antibody 33 (antibody, V domains shown)
VH: QVQLQQSGPGLVKPSQTLSLTCAISGDSVSNNNAAWNWIRQSPSRGLEWLGGTYYRSKWYNDYAVSVKSRIIINPVTSKNQFSLQLNSVTPEDTAVYYCARGSSWYRFFDYWGQGTLVTVSS
VL: EIVLTQSPGTLSLSPGERATLSCRASQSVGSSYLAWYQQKPGQAPRLLISGASGRATGIPDRFSGSGSGTDFTLTISRLEPEDFTVYYCQQYGSSPYTFGQGTKLEIK
notes: as for B1
B12: Antibody 14 (antibody, V domains shown)
VH: QVQLQESGPGLVKPSQTLSLTCTVSGGSITSDGYHWSWIRQYPGKGLDWIGYIYYTGNTYYNPSLKSRVTISVGTSQNQFSLKLISVTAADTAVYYCARRLSTGPYFDYWGQGTLVTVSS
VL: QSALTQPASVSGSPGQSITISCTGTSSDVGGYEFVSWYQHHPGKAPKLMIYDVSSRPSGVSNRFSGSKSGNTASLTISGLQAEDEADYYCSSYTRSSTVVFGGGARLTVL
notes: as for B1
B13: Antibody 44 (antibody, V domains shown)
VH: QVQLVQSGAEVKKPGASVKVSCKASGYTFTSYYIHWVRQAPGQGLEWMGVTSPSGRSTSFAQKFQGRVTMTRDTSTSAVYMDLDSLRSEDTAVYYCARGGVTIHLERRGYFDYWGQGTLVIVSS
VL: not shown
notes: as for B1

biological target: T1, recombinant heavy chain Protein S (human, UniProt P07225 42-296); experiment: ELISA; plate coated with recombinant Protein S heavy chain; 1 mM CaCl2
T1 construct: Fragment of Protein S spanning amino acids 42-296, expressed and purified from HEK293 cells; also called Protein S heavy chain; heavy chain of Protein S
T1 sequence: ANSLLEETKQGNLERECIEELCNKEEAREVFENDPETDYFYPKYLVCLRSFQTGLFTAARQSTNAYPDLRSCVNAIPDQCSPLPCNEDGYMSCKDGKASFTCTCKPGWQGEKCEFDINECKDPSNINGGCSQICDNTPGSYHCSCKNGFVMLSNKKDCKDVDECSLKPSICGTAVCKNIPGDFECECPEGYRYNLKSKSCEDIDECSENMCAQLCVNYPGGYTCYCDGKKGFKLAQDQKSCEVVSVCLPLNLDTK
Procedure: (§1) Binding to the heavy chain of Protein S was determined using an ELISA based method. Briefly, high binding ELISA plates were coated with recombinant heavy chain Protein S expressed and purified from HEK293 cells. The “heavy chain” of Protein S represents a fragment of Protein S spanning amino acids 42-296. The coated plate was blocked with 1% casein solution. Then, buffer containing […] of antibody was applied to the well with buffer containing 1 mM calcium chloride.

| Binder | Binding to heavy chain (OD) |
| --- | --- |
| B1 | 1.63 OD |
| B2 | 1.78 OD |
| B3 | 1.67 OD |
| B4 | 0.6 OD |
| B5 | 0.61 OD |
| B6 | 1.54 OD |
| B7 | 1.58 OD |
| B8 | 0.1 OD |
| B9 | 0.71 OD |
| B10 | 0.13 OD |
| B11 | 0.11 OD |
| B12 | 2.03 OD |
| B13 | 0.48 OD |

biological target: T2, human Protein S (human, UniProt P07225 42-676); experiment: cell-based or functional assay
T2 sequence: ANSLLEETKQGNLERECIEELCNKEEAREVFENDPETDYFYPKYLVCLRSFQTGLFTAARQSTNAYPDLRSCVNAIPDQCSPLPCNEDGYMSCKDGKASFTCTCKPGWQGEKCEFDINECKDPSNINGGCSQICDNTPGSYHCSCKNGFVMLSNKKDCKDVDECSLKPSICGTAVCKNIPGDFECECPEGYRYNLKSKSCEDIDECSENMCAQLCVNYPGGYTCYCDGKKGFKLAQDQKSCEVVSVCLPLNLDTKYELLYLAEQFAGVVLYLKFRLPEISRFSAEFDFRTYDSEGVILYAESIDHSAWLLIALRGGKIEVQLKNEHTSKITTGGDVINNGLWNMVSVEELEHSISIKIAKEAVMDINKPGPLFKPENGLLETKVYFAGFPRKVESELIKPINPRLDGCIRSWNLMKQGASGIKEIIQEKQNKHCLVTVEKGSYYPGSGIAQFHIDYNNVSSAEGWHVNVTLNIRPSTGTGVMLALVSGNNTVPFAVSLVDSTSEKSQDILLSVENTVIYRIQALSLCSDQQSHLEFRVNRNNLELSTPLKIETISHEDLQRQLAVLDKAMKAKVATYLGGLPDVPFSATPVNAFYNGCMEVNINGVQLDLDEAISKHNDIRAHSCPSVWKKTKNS

| Binder | IC50 APC | IC50 TFPI |
| --- | --- | --- |
| B1 | 5.3 nM | 51.1 nM |
| B2 | 13.5 nM | 77.3 nM |
| B3 | 14 nM | 46.3 nM |
| B4 | 12.8 nM |  |
| B5 | 81.2 nM | 105 nM |
| B6 | 12.8 nM |  |
| B7 | 6.23 nM |  |
| B8 |  | < 4.4 nM |
| B9 | 17.9 nM | 73.6 nM |
| B10 | 99 nM |  |
| B11 | 58.1 nM | 34 nM |
| B12 | 8.76 nM | 73.3 nM |
| B13 | 492 nM |  |

biological target: T1, recombinant heavy chain Protein S; experiment: ELISA on recombinant Protein S heavy chain
Procedure: as §1

| Binder | binding result |
| --- | --- |
| B8 | no binding |
| B10 | no binding |
| B11 | no binding |

biological target: T2, human Protein S; experiment: ELISA; plate coated with human Protein S; 1 µg/ml antibody; 1 mM calcium chloride
Procedure: (§2) Calcium dependence of binding was determined using an ELISA based method. Briefly, high binding ELISA plates were coated with human Protein S. Then, buffer containing 1 μg/ml of antibody was applied to the well with either buffer containing 1 mM EDTA or 1 mM calcium chloride.

| Binder | Binding to Protein S in CaCl2 (OD) |
| --- | --- |
| B1 | 1.77 OD |
| B2 | 1.86 OD |
| B3 | 1.95 OD |
| B4 | 1.96 OD |
| B5 | 1.68 OD |
| B6 | 1.93 OD |
| B7 | 1.92 OD |
| B8 | 0.57 OD |
| B9 | 1.72 OD |
| B10 | 1.03 OD |
| B11 | 1.23 OD |
| B12 | 2.03 OD |
| B13 | 1.17 OD |

biological target: T2, human Protein S; experiment: ELISA; plate coated with human Protein S; 1 µg/ml antibody; 1 mM EDTA
Procedure: as §2

| Binder | Binding to Protein S in EDTA (OD) |
| --- | --- |
| B1 | 0.48 OD |
| B2 | 0.07 OD |
| B3 | 0.17 OD |
| B4 | 0.1 OD |
| B5 | 0.06 OD |
| B6 | 0.26 OD |
| B7 | 1.4 OD |
| B8 | 0.26 OD |
| B9 | 0.06 OD |
| B10 | 0.63 OD |
| B11 | 0.2 OD |
| B12 | 0.75 OD |
| B13 | 0.89 OD |
